Measured values as given in patent US20230391845A1, “GLP-1, GIP AND GLUCAGON RECEPTOR TRIPLE AGONISTS” (priority 2020, published 2023).
Where no end group is shown, it is not given here. [ ]: non-standard residue; d: D form. Aib = CC(C)(N)C(=O)O

T1: human glucose-dependent insulinotropic polypeptide receptor (human, UniProt P48546 22-466)
T1 sequence (looked up): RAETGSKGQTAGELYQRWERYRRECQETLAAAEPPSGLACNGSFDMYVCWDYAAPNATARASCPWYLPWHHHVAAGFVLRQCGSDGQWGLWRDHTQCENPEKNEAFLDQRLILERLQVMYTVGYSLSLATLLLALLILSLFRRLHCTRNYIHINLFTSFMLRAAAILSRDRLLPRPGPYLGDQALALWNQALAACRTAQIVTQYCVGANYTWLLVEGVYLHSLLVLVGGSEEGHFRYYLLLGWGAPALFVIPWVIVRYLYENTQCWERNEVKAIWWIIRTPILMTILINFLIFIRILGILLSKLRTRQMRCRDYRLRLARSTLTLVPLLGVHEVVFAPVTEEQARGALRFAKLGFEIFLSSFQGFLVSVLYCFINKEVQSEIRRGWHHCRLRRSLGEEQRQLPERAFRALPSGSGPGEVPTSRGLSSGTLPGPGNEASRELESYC

B1: Compound No. 32 (peptide)
peptide: H[Aib]HGTFTSDYSYYLEKQAA[Aib]EFVQWLLEGGPSSGAPPPS-NH2
modifications: not fully specified (residue 16); printed as H-Aib-HGTFTSDYSYYLE-K[(2S)-2-amino-6-[[(2S)-2-amino-6-[[(4S)-4-carboxy-4-(17-carboxyheptadecanoylamino)butanoyl]amino]hexanoyl]amino]hexanoyl]-QAA-Aib-EFVQWLLEGGPSSGAPPPS-NH2
B2: Compound No. 35 (peptide)
peptide: H[Aib]HGTFTSDYSIYLEKQKA[Aib]EFVQWLLEGGPSSGAPPPS-NH2
modifications: not fully specified (residue 16); printed as H-Aib-HGTFTSDYSIYLE-K[(2S)-2-amino-6-[[(2S)-2-amino-6-[[(4S)-4-carboxy-4-(19-carboxynonadecanoylamino)butanoyl]amino]hexanoyl]amino]hexanoyl]-QKA-Aib-EFVQWLLEGGPSSGAPPPS-NH2
B3: Compound No. 26 (peptide)
peptide: H[Aib]HGTFTSDYSYYLEKQAA[Aib]EFVQWLLEGGPSSGAPPPS-NH2
modifications: not fully specified (residue 16); printed as H-Aib-HGTFTSDYSYYLE-K[(2S)-2-amino-6-[[(2S)-2-amino-6-[[(4S)-4-carboxy-4-(19-carboxynonadecanoylamino)butanoyl]amino]hexanoyl]amino]hexanoyl]-QAA-Aib-EFVQWLLEGGPSSGAPPPS-NH2
B4: Compound No. 28 (peptide)
peptide: H[Aib]HGTFTSDYSIYLDKQAA[Aib]EFVQWLLEGGPSSGAPPPS-NH2
modifications: not fully specified (residue 16); printed as H-Aib-HGTFTSDYSIYLD-K[(2S)-2-amino-6-[[(2S)-2-amino-6-[[(4S)-4-carboxy-4-(19-carboxynonadecanoylamino)butanoyl]amino]hexanoyl]amino]hexanoyl]-QAA-Aib-EFVQWLLEGGPSSGAPPPS-NH2
B5: Compound No. 23 (peptide)
peptide: H[Aib]HGTFTSDYSIYLEKQAAQEFVQWLLEGGPSSGAPPPS-NH2
modifications: not fully specified (residue 16); printed as H-Aib-HGTFTSDYSIYLE-K[(2S)-2-amino-6-[[(2S)-2-amino-6-[[(4S)-4-carboxy-4-[[4-[(19-carboxynonadecanoylamino)methyl]cyclohexanecarbonyl]amino]butanoyl]amino]hexanoyl]amino]hexanoyl]-QAAQEFVQWLLEGGPSSGAPPPS-NH2
B6: Compound No. 31 (peptide)
peptide: H[Aib]HGTFTSDYSYYLEKKAA[Aib]EFVQWLLEGGPSSGAPPPS-NH2
modifications: not fully specified (residue 16); printed as H-Aib-HGTFTSDYSYYLE-K[(2S)-2-amino-6-[[(2S)-2-amino-6-[[(4S)-4-carboxy-4-(19-carboxynonadecanoylamino)butanoyl]amino]hexanoyl]amino]hexanoyl]-KAA-Aib-EFVQWLLEGGPSSGAPPPS-NH2
B7: Compound No. 34 (peptide)
peptide: H[Aib]HGTFTSDYSIYLEKKAA[Aib]EFVQWLLEGGPSSGAPPPS-NH2
modifications: not fully specified (residue 16); printed as H-Aib-HGTFTSDYSIYLE-K[2-[2-[2-[[2-[2-[2-[[(4S)-4-carboxy-4-(19-carboxynonadecanoylamino)butanoyl]amino]ethoxy]ethoxy]acetyl]amino]ethoxy]ethoxy]acetyl]-KAA-Aib-EFVQWLLEGGPSSGAPPPS-NH2
B8: Compound No. 19 (peptide)
peptide: H[Aib]QGTFTSDYSIYLEKQAA[Aib]EFVQWLLEGGPSSGAPPPS-NH2
modifications: not fully specified (residue 16); printed as H-Aib-QGTFTSDYSIYLE-K[(2S)-2-amino-6-[[(2S)-2-amino-6-[[(4S)-4-carboxy-4-(19-carboxynonadecanoylamino)butanoyl]amino]hexanoyl]amino]hexanoyl]-QAA-Aib-EFVQWLLEGGPSSGAPPPS-NH2
B9: Compound No. 24 (peptide)
peptide: H[Aib]HGTFTSDYSIYLEKQYA[Aib]EFVQWLLEGGPSSGAPPPS-NH2
modifications: not fully specified (residue 16); printed as H-Aib-HGTFTSDYSIYLE-K[(2S)-2-amino-6-[[(2S)-2-amino-6-[[(4S)-4-carboxy-4-(19-carboxynonadecanoylamino)butanoyl]amino]hexanoyl]amino]hexanoyl]-QYA-Aib-EFVQWLLEGGPSSGAPPPS-NH2
B10: Compound No. 22 (peptide)
peptide: H[Aib]HGTFTSDYSIYLEKQAA[Aib]EFVQWLLEGGPSSGAPPPS-NH2
modifications: not fully specified (residue 16); printed as H-Aib-HGTFTSDYSIYLE-K[(2S)-2-amino-6-[[(2S)-2-amino-6-[[(4S)-4-carboxy-4-(19-carboxynonadecanoylamino)butanoyl]amino]hexanoyl]amino]hexanoyl]-QAA-Aib-EFVQWLLEGGPSSGAPPPS-NH2
B11: Compound No. 29 (peptide)
peptide: H[Aib]HGTFTSDYSYYLEKQYA[Aib]EFVQWLLEGGPSSGAPPPS-NH2
modifications: not fully specified (residue 16); printed as H-Aib-HGTFTSDYSYYLE-K[(2S)-2-amino-6-[[(2S)-2-amino-6-[[(4S)-4-carboxy-4-(19-carboxynonadecanoylamino)butanoyl]amino]hexanoyl]amino]hexanoyl]-QYA-Aib-EFVQWLLEGGPSSGAPPPS-NH2
B12: Compound No. 20 (peptide)
peptide: Y[Aib]QGTFTSDYSIYLEKQAAQEFVQWLLEGGPSSGAPPPS-NH2
modifications: not fully specified (residue 16); printed as Y-Aib-QGTFTSDYSIYLE-K[2-[2-[2-[[2-[2-[2-[[(4S)-4-carboxy-4-[[4-[(19-carboxynonadecanoylamino)methyl]cyclohexanecarbonyl]amino]butanoyl]amino]ethoxy]ethoxy]acetyl]amino]ethoxy]ethoxy]acetyl]-QAAQEFVQWLLEGGPSSGAPPPS-NH2
B13: Compound No. 25 (peptide)
peptide: H[Aib]HGTFTSDYSYYLEKQAA[Aib]EFVQWLLEGGPSSGAPPPS-NH2
modifications: not fully specified (residue 16); printed as H-Aib-HGTFTSDYSYYLE-K[(2S)-2-amino-6-[[(2S)-2-amino-6-[[(4S)-4-carboxy-4-[[4-[(19-carboxynonadecanoylamino)methyl]cyclohexanecarbonyl]amino]butanoyl]amino]hexanoyl]amino]hexanoyl]-QAA-Aib-EFVQWLLEGGPSSGAPPPS-NH2
B14: Compound No. 27 (peptide)
peptide: H[Aib]HGTFTSDYSIYLEKQAAEEFVQWLLEGGPSSGAPPPS-NH2
modifications: not fully specified (residue 16); printed as H-Aib-HGTFTSDYSIYLE-K[(2S)-2-amino-6-[[(2S)-2-amino-6-[[(4S)-4-carboxy-4-(19-carboxynonadecanoylamino)butanoyl]amino]hexanoyl]amino]hexanoyl]-QAAEEFVQWLLEGGPSSGAPPPS-NH2

target: human glucagon-like peptide 1 receptor (human, UniProt P43220 24-463); test: cell-based or functional assay

Binder	hGLP-1R CRE Luc EC50 (pM)
B1	1.6
B2	5.2
B3	3.1
B4	4.5
B5	2
B6	3
B7	2.6
B8	1.7
B9	6.8
B10	2
B11	5.8
B12	5.1
B13	4.6
B14	0.8

target: human glucagon receptor (human, UniProt P47871 26-477); test: cell-based or functional assay
Sequence (P47871 26-477): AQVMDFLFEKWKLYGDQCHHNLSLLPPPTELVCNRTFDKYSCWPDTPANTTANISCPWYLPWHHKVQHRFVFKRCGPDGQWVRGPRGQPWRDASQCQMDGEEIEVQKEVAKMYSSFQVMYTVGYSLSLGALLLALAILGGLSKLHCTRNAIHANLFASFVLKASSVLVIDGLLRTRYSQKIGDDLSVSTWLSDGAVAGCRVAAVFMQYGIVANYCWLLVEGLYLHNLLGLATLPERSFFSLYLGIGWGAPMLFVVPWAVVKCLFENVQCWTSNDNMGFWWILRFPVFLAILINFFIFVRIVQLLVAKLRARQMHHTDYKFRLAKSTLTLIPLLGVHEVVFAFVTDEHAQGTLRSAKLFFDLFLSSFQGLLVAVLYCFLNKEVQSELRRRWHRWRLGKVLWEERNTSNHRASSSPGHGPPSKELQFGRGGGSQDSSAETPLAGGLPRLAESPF

Binder	hGcgR CRE Luc EC50 (pM)
B1	10.3
B2	5
B3	13.6
B4	16.7
B5	18.3
B6	7.7
B7	24.7
B8	357
B9	13.1
B10	48.7
B11	9.6
B12	147
B13	25.2
B14	55

target: T1, human glucose-dependent insulinotropic …; test: cell-based or functional assay

Binder	hGIPR CRE Luc EC50 (pM)
B1	3.5
B2	13.9
B3	6.5
B4	7.7
B5	5.1
B6	9
B7	8.7
B8	55
B9	7.7
B10	7.1
B11	7.2
B12	8.1
B13	6.9
B14	2.5
